Values of other authors in paper PMC5466818.
pKd: −log10 of the molar value.

Target: formin Bnr1 (Saccharomyces cerevisiae) (UniProt P40450)
Chain of UniProt P40450 (P40450 whole entry): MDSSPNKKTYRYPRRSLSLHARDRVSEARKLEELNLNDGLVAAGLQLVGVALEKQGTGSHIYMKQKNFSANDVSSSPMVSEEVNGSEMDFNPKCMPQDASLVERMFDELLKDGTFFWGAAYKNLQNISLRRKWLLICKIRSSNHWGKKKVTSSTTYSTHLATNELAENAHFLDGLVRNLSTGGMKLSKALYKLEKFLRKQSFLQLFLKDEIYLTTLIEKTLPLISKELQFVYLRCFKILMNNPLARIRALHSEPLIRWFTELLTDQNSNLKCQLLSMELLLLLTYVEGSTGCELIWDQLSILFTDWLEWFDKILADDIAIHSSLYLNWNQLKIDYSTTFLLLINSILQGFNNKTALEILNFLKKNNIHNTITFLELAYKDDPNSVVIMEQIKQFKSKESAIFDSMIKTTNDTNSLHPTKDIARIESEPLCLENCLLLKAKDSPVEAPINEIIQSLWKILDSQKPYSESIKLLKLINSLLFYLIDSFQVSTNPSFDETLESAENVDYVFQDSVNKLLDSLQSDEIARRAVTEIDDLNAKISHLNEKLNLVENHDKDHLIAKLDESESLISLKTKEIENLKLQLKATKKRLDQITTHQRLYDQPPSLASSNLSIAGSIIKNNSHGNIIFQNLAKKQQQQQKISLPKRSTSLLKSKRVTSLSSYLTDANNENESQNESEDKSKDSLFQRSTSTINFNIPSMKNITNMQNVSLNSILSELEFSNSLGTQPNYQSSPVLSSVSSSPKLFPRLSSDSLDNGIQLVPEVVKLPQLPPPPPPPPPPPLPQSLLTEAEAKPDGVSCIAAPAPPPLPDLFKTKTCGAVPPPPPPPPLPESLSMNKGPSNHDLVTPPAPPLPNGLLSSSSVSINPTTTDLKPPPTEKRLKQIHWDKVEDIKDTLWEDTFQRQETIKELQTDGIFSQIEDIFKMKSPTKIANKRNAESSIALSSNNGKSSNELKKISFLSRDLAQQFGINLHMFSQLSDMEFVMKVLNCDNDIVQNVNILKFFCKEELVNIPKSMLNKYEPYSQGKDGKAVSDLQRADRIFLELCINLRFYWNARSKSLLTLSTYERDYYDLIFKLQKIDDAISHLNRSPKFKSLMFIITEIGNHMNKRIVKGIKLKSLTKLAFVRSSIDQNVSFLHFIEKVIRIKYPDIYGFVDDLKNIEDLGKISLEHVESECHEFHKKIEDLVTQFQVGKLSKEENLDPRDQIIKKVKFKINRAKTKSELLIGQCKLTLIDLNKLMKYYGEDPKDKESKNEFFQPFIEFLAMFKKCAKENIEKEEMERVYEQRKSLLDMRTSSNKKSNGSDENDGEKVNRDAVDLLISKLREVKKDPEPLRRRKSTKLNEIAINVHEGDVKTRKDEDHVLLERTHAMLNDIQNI

pKd: 7.82
Substance: Bud14 (from UniProt P27637)
